First the molecules themselves.
B1: corresponding monoclonal antibody having the same FAP binding site as FAP-multi-specific BP Sibrotuzumab (antibody, V domains shown)
VH: QVQLVQSGAEVKKPGASVKVSCKTSRYTFTEYTIHWVRQAPGQRLEWIGGINPNNGIPNYNQKFKGRVTITVDTSASTAYMELSSLRSEDTAVYYCARRRIAYGYDEGHAMDYWGQGTLVTVSS
VL: DIVMTQSPDSLAVSLGERATINCKSSQSLLYSRNQKNYLAWYQQKPGQPPKLLIFWASTRESGVPDRFSGSGFGTDFTLTISSLQAEDVAVYYCQQYFSYPLTFGQGTKVEIK
notes: also called FAP-mAb; anti-FAP mAb
B2: corresponding monoclonal antibody having the same FAP binding site as FAP-multi-specific BP 4G8 (antibody, V domains shown)
VH: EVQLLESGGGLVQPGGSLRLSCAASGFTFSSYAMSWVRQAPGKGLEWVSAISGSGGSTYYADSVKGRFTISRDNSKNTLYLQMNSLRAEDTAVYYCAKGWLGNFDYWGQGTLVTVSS
VL: EIVLTQSPGTLSLSPGERATLSCRASQSVSRSYLAWYQQKPGQAPRLLIIGASTRATGIPDRFSGSGSGTDFTLTISRLEPEDFAVYYCQQGQVIPPTFGQGTKVEIK
notes: as for B1
B3: corresponding monoclonal antibody having the same FAP binding site as FAP-multi-specific BP 29B11 (antibody, V domains shown)
VH: EVQLLESGGGLVQPGGSLRLSCAASGFTFSSYAMSWVRQAPGKGLEWVSAIIGSGGITYYADSVKGRFTISRDNSKNTLYLQMNSLRAEDTAVYYCAKGWFGGFNYWGQGTLVTVSS
VL: EIVLTQSPGTLSLSPGERATLSCRASQSVTSSYLAWYQQKPGQAPRLLINVGSRRATGIPDRFSGSGSGTDFTLTISRLEPEDFAVYYCQQGIMLPPTFGQGTKVEIK
notes: as for B1

The values that follow come from patent publication US20210363261A1 (DRAGONFLY THERAPEUTICS, published 2021).

The experiment deals with T1, fibroblast activation protein (FAP) expressed on human cell lines LL86, COLO 829 and U-87 MG (human, UniProt Q12884 1-760).
T1 construct: the assays used endogenous FAP on human cell lines
The experiment is described as follows: flow cytometry on LL86, COLO 829 and U-87 MG cells, anti-human IgG detection, MFI fold over background. The procedure: Multi-specific binding proteins or corresponding monoclonal antibodies (mAb) having the same FAP binding site were diluted and incubated with the cells. Binding was detected using fluorophore-conjugated anti-human IgG secondary antibody. Cells were analyzed by flow cytometry and express as mean fluorescence intensity (MFI) normalized to human recombinant IgG1 stained controls to obtain fold over background (FOB) values.
In general terms: A flow cytometer gives signals particle by particle.
For the molecule B1, the binding result was “binds”.

As to B2, the binding result was “binds”.

With B3, the binding result is listed as “binds”.
